One molecule from publication PMC6740199 (Molecular Biology of the Cell, 2019) can be followed below.

The test has as its target T1, six-histidine-tagged Bem1 (His6-Bem1), carrying Bem1 residues from 44 to 551 (S. cerevisiae, UniProt P29366 44-551).
T1 sequence: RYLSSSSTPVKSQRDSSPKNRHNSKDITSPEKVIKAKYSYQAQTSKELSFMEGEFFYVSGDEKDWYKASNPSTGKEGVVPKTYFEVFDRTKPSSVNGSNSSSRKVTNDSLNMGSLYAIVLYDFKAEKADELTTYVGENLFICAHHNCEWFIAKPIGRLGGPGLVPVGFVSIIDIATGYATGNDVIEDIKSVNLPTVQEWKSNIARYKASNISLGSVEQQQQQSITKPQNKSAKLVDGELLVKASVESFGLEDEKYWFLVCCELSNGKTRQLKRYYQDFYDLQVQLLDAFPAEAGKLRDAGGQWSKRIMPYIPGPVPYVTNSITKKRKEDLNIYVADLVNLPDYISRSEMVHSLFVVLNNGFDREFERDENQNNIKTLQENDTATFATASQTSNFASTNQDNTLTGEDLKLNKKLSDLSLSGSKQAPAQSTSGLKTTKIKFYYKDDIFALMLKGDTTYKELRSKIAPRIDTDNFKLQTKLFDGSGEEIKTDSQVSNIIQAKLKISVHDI
Put plainly: pull-down.

B1: GST (glutathione S-transferase)-Rsr1 (natural protein)
chain: MRDYKLVVLGAGGVGKSCLTVQFVQGVYLDTYDPTIEDSYRKTIEIDNKVFDLEILDTAGIAQFTAMRELYIKSGMGFLLVYSVTDRQSLEELMELREQVLRIKDSDRVPMVLIGNKADLINERVISVEEGIEVSSKWGRVPFYETSALLRSNVDEVFVDLVRQIIRNEMESVAVKDARNQSQQFSKIESPSTRLPSSAKQDTKQSNNKQSSKGLYNKSSQGQAKVKQSTPVNEKHKPSHAVPKSGSSNRTGISATSQQKKKKKNASTCTIL
With B1, the binding result is “binds”.
